The values that follow come from US20070161078A1.

Assay [1] concerns the target MBP.NS1 H3N2 (RSKV) (influenza A H3N2) (UniProt Q67253). Put plainly: G assay titration.
Assay [2] concerns the target MBP.NS1 H1N1 (RSEV) (influenza A H1N1) (UniProt A3DRP6). Put plainly: G assay titration.
In assay [3] the target is MBP.NS1 H3N2 (RSKV) (influenza A H3N2) (UniProt Q67253). Put plainly: titration, direct binding sandwich assay.
In assay [4] the target is Peptide 1958 H5N1A (EPEV) (influenza A H5N1). Put plainly: G assay titration.
The target in assay [5] is MBP.NS1 H5N1B (ESEV) (influenza A H5N1) (UniProt Q6DP28). Nature of the assay: direct binding assay titration.
In assay [6] the target is MBP.NS1 H3N2 (RSKV) (influenza A H3N2) (UniProt Q67253). Put plainly: direct binding assay titration.
The target of assay [7] is MBP.NS1 H1N1 (RSEV) (influenza A H1N1) (UniProt A3DRP6). Put plainly: direct binding assay titration.
In assay [8] the target is MBP.NS1 H5N1A (EPEV) (influenza A H5N1) (UniProt O56264). Put plainly: direct binding assay titration.
Assay [9] concerns the target MBP.NS1 H5N1B (ESEV) (influenza A H5N1) (UniProt Q6DP28). Nature of the assay: G assay titration.
For assay [10], the target named is MBP.NS1 H5N1A (EPEV) (influenza A H5N1) (UniProt O56264). Put plainly: G assay titration.
For assay [11], the target named is MBP.NS1 H5N1B (ESEV) (influenza A H5N1) (UniProt Q6DP28). Put plainly: titration, direct binding sandwich assay.
Assay [12] has as its target MBP.NS1 H1N1 (RSEV) (influenza A H1N1) (UniProt A3DRP6). Put plainly: titration, direct binding sandwich assay.
Assay [13] concerns the target MBP.NS1 H5N1A (EPEV) (influenza A H5N1) (UniProt O56264). Put plainly: titration, direct binding sandwich assay.

As usually defined, the EC50 is the concentration giving half of the maximal effect. For “INADL d8 (from UniProt Q8NI35 1431-1525)”, the figures for the EC50 in assay [1], in assay [2] and in assay [3] were 0.9 µg/mL, 3.2 µg/mL and 0.869 µg/mL, respectively.

In the case of “MAST2 d1 (from UniProt Q6P0Q8 1098-1197)”, the figures for the EC50 in assay [1], in [2] and in [4] were > 50 µg/mL, 2 µg/mL and 5.5 µg/mL, respectively.

Turning to Magi3 d1 (from UniProt Q5TCQ9 18-106), the EC50 in [1] is 3 µg/mL; in assay [2], 3.1 µg/mL.

In the case of “NeDLG d1,2 (from UniProt Q92796 124-316)”, the results for the EC50 in [1] and in assay [2] were > 50 µg/mL and 1.1 µg/mL, respectively.

Regarding “Outer Membrane Protein (from UniProt P08515 1-218)”, the EC50 was found to be 0.8 µg/mL in assay [5]; 3 µg/mL in assay [6]; 6 µg/mL in assay [7]; 12.5 µg/mL in assay [8]; 0.2 µg/mL in assay [9]; 13 µg/mL in assay [1]. In addition, the EC50 in [2] worked out at 1.2 µg/mL; in [10], 27 µg/mL; in assay [11], 0.18 µg/mL; in assay [12] it was 1.25 µg/mL; in assay [13] it was 12.6 µg/mL.

In [4], PSD95 d2 (from UniProt P31016 160-246) returned an EC50 of 3.8 µg/mL.
